# Measured values from publication doi:10.1101/2025.06.27.661974 (bioRxiv, 2025).
# B1: Flag-UBE2O-TwinStrep (recombinant Homo sapiens UBE2O, purified) (enzyme, human, UniProt Q9C0C9 1-1292, looked up)
# chain: MADPAAPTPAAPAPAQAPAPAPEAVPAPAAAPVPAPAPASDSASGPSSDSGPEAGSQRLLFSHDLVSGRYRGSVHFGLVRLIHGEDSDSEGEEEGRGSSGCSEAGGAGHEEGRASPLRRGYVRVQWYPEGVKQHVKETKLKLEDRSVVPRDVVRHMRSTDSQCGTVIDVNIDCAVKLIGTNCIIYPVNSKDLQHIWPFMYGDYIAYDCWLGKVYDLKNQIILKLSNGARCSMNTEDGAKLYDVCPHVSDSGLFFDDSYGFYPGQVLIGPAKIFSSVQWLSGVKPVLSTKSKFRVVVEEVQVVELKVTWITKSFCPGGTDSVSPPPSVITQENLGRVKRLGCFDHAQRQLGERCLYVFPAKVEPAKIAWECPEKNCAQGEGSMAKKVKRLLKKQVVRIMSCSPDTQCSRDHSMEDPDKKGESKTKSEAESASPEETPDGSASPVEMQDEGAEEPHEAGEQLPPFLLKEGRDDRLHSAEQDADDEAADDTDDTSSVTSSASSTTSSQSGSGTSRKKSIPLSIKNLKRKHKRKKNKITRDFKPGDRVAVEVVTTMTSADVMWQDGSVECNIRSNDLFPVHHLDNNEFCPGDFVVDKRVQSCPDPAVYGVVQSGDHIGRTCMVKWFKLRPSGDDVELIGEEEDVSVYDIADHPDFRFRTTDIVIRIGNTEDGAPHKEDEPSVGQVARVDVSSKVEVVWADNSKTIILPQHLYNIESEIEESDYDSVEGSTSGASSDEWEDDSDSWETDNGLVEDEHPKIEEPPIPPLEQPVAPEDKGVVISEEAATAAVQGAVAMAAPMAGLMEKAGKDGPPKSFRELKEAIKILESLKNMTVEQLLTGSPTSPTVEPEKPTREKKFLDDIKKLQENLKKTLDNVAIVEEEKMEAVPDVERKEDKPEGQSPVKAEWPSETPVLCQQCGGKPGVTFTSAKGEVFSVLEFAPSNHSFKKIEFQPPEAKKFFSTVRKEMALLATSLPEGIMVKTFEDRMDLFSALIKGPTRTPYEDGLYLFDIQLPNIYPAVPPHFCYLSQCSGRLNPNLYDNGKVCVSLLGTWIGKGTERWTSKSSLLQVLISIQGLILVNEPYYNEAGFDSDRGLQEGYENSRCYNEMALIRVVQSMTQLVRRPPEVFEQEIRQHFSTGGWRLVNRIESWLETHALLEKAQALPNGVPKASSSPEPPAVAELSDSGQQEPEDGGPAPGEASQGSDSEGGAQGLASASRDHTDQTSETAPDASVPPSVKPKKRRKSYRSFLPEKSGYPDIGFPLFPLSKGFIKSIRGVLTQFRAALLEAGMPECTEDK
# Molecular target: the molecule itself
# Experiment: SEC-MALS
protein,measurement,value
B1,stoichiometry N,2
